# Measured values reported in patent US20260308262 (published 2026).
# Target: CD161 (human)
# Assay: other (literature value, Kamishikiryo et al 2011)
# Sequence of CD161 (human) (chain, as listed by the source): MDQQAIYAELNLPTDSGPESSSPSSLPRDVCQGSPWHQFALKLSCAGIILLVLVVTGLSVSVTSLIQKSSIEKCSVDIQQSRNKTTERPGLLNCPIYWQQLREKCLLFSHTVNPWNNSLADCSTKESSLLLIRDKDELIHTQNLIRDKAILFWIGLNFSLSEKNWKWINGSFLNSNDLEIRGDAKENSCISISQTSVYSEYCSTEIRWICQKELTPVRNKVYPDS
binder,measurement,value
CLEC2D (protein) RANCHQEPSVCLQAACPESWIGFQRKCFYFSDDTKNWTSSQRFCDSQDADLAQVESFQELNFLLRYKGPSDHWIGLSREQGQPWKWINGTEWTRQFPILGAGECAYLNDKGASSARHYTERKWICSKSDIHV,Kd,48 µM
